Experimental data from the supplement of paper PMC10065799, “High-throughput profiling of sequence recognition by tyrosine kinases and SH2 domains using bacterial peptide display” (eLife, 2023).

Assays:
Grb2 SH2 = Grb2 SH2 (UniProt P62993); experiment: SH2 binding enrichment of the phosphorylated peptide, bacterial display (enrichment ratio); higher = better substrate or ligand; peptides without Tyr show the background
c-Src SH2 = experiment: as above
SHP2-C SH2 = experiment: as above
EPHB2 = EPHB2 (UniProt P29323); experiment: phosphorylation enrichment, bacterial display (enrichment ratio); higher = better substrate or ligand; peptides without Tyr show the background
EPHB2, sequence (P29323 whole entry, looked up): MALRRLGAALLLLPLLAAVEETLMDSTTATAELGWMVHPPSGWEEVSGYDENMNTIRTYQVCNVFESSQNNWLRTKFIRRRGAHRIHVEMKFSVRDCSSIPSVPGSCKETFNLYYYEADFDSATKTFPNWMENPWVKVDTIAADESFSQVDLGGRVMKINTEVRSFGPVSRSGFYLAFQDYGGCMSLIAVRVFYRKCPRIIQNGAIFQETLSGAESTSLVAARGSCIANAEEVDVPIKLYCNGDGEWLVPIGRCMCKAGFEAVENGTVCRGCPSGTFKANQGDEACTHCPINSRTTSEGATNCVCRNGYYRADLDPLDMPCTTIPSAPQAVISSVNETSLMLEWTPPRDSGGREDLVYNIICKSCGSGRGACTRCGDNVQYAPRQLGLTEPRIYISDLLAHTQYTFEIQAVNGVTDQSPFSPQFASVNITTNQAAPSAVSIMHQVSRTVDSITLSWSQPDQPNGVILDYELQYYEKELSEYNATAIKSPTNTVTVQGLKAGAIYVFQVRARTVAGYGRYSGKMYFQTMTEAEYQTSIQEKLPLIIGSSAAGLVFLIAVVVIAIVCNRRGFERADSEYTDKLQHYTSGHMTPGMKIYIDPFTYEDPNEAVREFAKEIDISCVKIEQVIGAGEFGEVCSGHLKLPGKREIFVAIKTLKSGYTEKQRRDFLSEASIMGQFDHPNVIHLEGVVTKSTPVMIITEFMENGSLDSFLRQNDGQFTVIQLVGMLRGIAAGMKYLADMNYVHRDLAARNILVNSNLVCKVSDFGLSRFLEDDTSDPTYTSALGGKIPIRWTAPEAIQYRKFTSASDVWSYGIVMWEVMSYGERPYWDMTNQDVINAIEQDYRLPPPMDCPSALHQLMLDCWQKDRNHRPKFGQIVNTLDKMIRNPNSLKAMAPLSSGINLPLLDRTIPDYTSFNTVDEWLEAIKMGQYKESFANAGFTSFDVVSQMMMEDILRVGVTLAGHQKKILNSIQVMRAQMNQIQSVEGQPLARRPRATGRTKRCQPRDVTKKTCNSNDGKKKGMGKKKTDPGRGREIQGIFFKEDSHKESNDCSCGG

EPHB1 = EPHB1 (UniProt P54762); experiment: as above
EPHB1, sequence (P54762 whole entry, looked up): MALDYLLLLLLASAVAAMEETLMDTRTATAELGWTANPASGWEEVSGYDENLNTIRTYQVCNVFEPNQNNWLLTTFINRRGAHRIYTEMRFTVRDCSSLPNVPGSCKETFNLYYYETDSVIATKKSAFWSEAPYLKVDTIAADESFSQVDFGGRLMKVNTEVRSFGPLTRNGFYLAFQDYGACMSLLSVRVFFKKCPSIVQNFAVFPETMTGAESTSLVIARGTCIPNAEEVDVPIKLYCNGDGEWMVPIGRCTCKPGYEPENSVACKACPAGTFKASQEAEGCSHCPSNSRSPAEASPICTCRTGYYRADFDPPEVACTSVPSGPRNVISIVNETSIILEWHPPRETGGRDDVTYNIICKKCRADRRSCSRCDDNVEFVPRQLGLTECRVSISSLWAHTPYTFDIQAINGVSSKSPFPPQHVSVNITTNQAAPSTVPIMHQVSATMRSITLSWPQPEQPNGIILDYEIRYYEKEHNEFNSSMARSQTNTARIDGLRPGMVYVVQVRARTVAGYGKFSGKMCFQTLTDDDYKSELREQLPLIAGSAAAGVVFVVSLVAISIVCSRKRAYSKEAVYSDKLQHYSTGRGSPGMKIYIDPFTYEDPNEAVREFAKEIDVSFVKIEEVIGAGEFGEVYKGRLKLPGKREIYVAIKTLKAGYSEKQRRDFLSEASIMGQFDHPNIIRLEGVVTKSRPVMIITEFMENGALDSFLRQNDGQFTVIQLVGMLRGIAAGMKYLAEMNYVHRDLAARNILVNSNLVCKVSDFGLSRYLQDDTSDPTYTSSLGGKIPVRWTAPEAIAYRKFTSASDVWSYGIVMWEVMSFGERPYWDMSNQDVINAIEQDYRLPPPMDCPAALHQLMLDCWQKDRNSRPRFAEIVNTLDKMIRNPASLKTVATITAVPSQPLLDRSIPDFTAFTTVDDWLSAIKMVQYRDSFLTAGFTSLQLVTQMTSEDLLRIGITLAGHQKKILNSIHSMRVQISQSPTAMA

FGFR3 = FGFR3 (UniProt P22607); experiment: as above
FGFR3, sequence (P22607 whole entry, looked up): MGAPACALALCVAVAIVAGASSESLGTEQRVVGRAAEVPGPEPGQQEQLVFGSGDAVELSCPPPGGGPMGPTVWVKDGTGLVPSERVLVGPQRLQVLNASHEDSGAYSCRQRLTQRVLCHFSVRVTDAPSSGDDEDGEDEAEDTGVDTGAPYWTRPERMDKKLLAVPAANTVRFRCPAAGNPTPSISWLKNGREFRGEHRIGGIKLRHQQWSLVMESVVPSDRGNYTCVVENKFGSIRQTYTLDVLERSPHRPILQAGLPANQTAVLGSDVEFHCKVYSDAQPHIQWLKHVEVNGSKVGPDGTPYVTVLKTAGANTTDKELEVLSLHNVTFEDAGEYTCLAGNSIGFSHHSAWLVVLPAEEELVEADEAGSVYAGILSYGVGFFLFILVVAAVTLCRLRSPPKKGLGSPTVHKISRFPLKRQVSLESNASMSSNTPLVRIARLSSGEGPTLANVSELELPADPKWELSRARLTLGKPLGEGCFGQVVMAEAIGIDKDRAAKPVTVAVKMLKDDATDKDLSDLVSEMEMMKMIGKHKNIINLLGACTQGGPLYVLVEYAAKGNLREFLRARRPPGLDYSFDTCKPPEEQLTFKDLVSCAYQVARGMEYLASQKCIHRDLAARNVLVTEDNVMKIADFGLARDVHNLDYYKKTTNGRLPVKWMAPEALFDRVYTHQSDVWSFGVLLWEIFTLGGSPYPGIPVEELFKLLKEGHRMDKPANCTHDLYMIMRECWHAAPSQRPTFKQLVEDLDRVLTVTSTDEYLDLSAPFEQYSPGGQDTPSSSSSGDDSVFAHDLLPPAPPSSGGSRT

MERTK = MERTK (UniProt Q12866); experiment: as above
MERTK, sequence (Q12866 whole entry, looked up): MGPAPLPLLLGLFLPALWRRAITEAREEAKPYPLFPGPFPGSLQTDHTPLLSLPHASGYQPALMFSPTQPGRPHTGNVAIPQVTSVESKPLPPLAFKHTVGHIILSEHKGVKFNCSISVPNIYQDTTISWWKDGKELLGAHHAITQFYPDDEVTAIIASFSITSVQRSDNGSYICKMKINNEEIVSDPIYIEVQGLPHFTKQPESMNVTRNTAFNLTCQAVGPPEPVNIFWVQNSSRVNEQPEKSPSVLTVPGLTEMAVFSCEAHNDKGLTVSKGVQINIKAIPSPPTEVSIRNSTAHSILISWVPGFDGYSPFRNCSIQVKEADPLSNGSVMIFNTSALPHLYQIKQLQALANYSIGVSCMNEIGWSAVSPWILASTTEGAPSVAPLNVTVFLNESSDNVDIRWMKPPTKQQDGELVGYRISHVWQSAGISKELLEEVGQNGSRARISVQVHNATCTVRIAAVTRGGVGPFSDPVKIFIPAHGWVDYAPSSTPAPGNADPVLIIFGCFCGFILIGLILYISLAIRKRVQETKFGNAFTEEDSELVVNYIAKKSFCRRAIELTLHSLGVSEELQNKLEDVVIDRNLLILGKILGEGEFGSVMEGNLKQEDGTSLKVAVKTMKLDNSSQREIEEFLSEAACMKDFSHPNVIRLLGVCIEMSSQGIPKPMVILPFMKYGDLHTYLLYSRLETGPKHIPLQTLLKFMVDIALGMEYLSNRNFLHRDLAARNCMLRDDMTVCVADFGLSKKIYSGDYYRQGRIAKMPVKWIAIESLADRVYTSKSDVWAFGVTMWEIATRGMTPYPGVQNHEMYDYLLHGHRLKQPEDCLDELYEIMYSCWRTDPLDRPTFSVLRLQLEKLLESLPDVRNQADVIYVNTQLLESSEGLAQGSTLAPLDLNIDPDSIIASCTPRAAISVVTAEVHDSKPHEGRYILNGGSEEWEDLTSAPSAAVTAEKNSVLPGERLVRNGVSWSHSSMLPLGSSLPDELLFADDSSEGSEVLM

c-Src = experiment: as above
c-Abl (mouse) = experiment: as above
Hck = Hck (UniProt P08631); experiment: as above
Jak2 = Jak2 (UniProt O60674); experiment: as above
Fes = Fes (UniProt P07332); experiment: as above
Fyn = Fyn (UniProt P06241); experiment: as above
Fer (mouse) = experiment: as above
AncSZ = experiment: as above
FGFR1 = FGFR1 (UniProt P11362); experiment: as above
FGFR1, sequence (P11362 whole entry, looked up, the tested form may be a part): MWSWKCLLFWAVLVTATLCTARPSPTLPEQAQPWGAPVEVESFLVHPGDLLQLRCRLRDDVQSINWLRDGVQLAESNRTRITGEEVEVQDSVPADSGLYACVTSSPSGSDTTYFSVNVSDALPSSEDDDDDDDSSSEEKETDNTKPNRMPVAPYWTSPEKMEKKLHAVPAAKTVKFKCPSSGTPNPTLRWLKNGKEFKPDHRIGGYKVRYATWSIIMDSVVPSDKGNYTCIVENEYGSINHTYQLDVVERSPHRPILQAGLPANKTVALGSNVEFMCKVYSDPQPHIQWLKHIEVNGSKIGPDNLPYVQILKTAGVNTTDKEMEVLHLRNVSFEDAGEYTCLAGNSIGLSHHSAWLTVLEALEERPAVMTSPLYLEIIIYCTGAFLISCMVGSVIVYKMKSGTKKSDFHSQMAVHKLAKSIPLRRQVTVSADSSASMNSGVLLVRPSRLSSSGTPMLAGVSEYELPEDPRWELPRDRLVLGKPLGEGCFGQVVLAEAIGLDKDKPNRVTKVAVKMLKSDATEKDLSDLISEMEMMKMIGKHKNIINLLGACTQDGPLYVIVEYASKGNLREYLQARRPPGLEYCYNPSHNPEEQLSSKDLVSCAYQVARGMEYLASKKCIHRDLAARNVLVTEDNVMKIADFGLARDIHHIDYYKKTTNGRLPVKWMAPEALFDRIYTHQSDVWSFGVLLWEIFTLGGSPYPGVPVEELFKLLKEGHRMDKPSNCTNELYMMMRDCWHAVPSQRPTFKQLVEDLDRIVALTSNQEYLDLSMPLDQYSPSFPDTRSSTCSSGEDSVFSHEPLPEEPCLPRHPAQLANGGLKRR
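Throughout, for SH2 binding enrichment of the phosphorylated peptide, bacterial display: peptide library displayed on the E. coli surface as eCPX fusions, selected cells deep-sequenced, score is each peptide's frequency after selection divided by its frequency in the input.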
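Throughout, for phosphorylation enrichment, bacterial display: 11-residue human phosphosite peptides and single-mutation variants displayed on the E. coli surface, counted by deep sequencing, each peptide's frequency after selection divided by its frequency in the unselected input library; frequency after pTyr selection over input frequency; kinase dosed for 20-30% of maximal phosphorylation in three min.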

Grb2 SH2, sequence (P62993 whole entry, looked up): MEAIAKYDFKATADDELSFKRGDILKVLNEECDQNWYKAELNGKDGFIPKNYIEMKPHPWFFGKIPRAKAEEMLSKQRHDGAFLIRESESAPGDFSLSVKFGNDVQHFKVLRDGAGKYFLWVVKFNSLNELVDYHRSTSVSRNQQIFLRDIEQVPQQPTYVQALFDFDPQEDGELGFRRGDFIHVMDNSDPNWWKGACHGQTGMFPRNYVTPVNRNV

| Sequence | SH2 binding enrichment (Grb2 SH2) | SH2 binding enrichment (c-Src SH2) | SH2 binding enrichment (SHP2-C SH2) | phosphorylation enrichment (EPHB2) | phosphorylation enrichment (EPHB1) | phosphorylation enrichment (FGFR3) | phosphorylation enrichment (MERTK) | phosphorylation enrichment (c-Src) | phosphorylation enrichment (c-Abl (mouse)) | phosphorylation enrichment (Hck) | phosphorylation enrichment (Jak2) | phosphorylation enrichment (Fes) | phosphorylation enrichment (Fyn) | phosphorylation enrichment (Fer (mouse)) | phosphorylation enrichment (AncSZ) | phosphorylation enrichment (FGFR1) |
| --- | --- | --- | --- | --- | --- | --- | --- | --- | --- | --- | --- | --- | --- | --- | --- | --- |
| EESSHCSTEKE [ADAR_Y587_Y587C] | 0.81 | 0.562 | 0.668 | 0.683 | 0.631 | 0.663 | 0.502 | 0.5 | 0.559 | 0.598 | 0.8 | 1.01 | 0.598 | 0.424 | 1.06 | 0.593 |
| EEVGIYRVSGV [BCR_Y1089] | 0.732 | 0.491 | 0.521 | 0.434 | 0.488 | 0.647 | 0.575 | 4.45 | 14.1 | 3.09 | 0.794 | 0.919 | 4.31 | 0.504 | 1.04 | 0.457 |
| EFGRRYGFSRQ [CCDC93_Y209_YF] | 0.686 | 0.546 | 0.508 | 0.416 | 0.427 | 0.432 | 0.499 | 0.492 | 1.42 | 0.422 | 0.607 | 0.634 | 0.449 | 0.338 | 0.621 | 0.43 |
| EGQKIYIDDNS [PIP4K2A_Y246_N251S] | 0.661 | 0.538 | 0.656 | 0.549 | 0.499 | 0.645 | 0.461 | 0.526 | 0.689 | 0.465 | 0.886 | 1.09 | 0.53 | 0.459 | 0.862 | 0.446 |
| EIEFLYNENMV [IARS1_Y680_T684M] | 0.727 | 0.592 | 0.882 | 0.678 | 0.595 | 0.693 | 0.411 | 0.421 | 0.62 | 0.526 | 1.07 | 1.11 | 0.484 | 0.526 | 1.21 | 0.418 |
| EKFVPYFDLFM [IPO5_Y530_YF] | 1.05 | 1.11 | 0.827 | 0.652 | 1.06 | 1.71 | 0.444 | 0.596 | 0.858 | 0.581 | 1.32 | 1.35 | 0.57 | 0.608 | 1.33 | 1.74 |
| EKGSNYCLCRT [ASIC2_Y357_D354G] | 0.947 | 0.645 | 0.806 | 0.45 | 0.47 | 0.497 | 0.458 | 0.393 | 0.56 | 0.349 | 0.572 | 0.607 | 0.504 | 0.378 | 0.732 | 0.469 |
| EKLQKYYRQNP [EHHADH_Y682] | 0.927 | 0.548 | 0.746 | 0.543 | 0.568 | 0.497 | 0.371 | 0.428 | 0.581 | 0.408 | 0.55 | 0.667 | 0.391 | 0.367 | 0.523 | 0.509 |
